Results as given in patent publication JP2014043405A (dated 2014).
Positions count from the first letter of the chain named. Blank lines part the entries; values can stand above or below the binder they belong to.

Columns and labels:
マウスFcRn [1] = target: T1, マウスFcRn (mouse, UniProt Q61559 22-297, limits assumed); assay: SPR, Biacore T100, pH 7.0, 25C
T1 construct: also called mouse FcRn
T1 sequence (looked up): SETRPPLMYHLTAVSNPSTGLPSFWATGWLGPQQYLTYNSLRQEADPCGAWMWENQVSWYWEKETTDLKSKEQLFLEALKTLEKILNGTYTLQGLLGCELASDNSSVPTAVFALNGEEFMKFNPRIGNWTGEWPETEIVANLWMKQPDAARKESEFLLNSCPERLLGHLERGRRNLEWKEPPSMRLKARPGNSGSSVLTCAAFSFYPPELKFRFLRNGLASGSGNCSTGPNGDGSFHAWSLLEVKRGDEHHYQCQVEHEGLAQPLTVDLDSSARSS

マウスFcRn [2] = target: T1, マウスFcRn; assay: SPR, Biacore T100; antibody captured on protein L, FcRn as analyte, pH 7.0, 25C; reference Fv4-IgG1
ヒトFcγRIa = ヒトFcγRIa (human, UniProt P12314 16-292); assay: SPR, KD
ヒトFcγRIIa (H) = target: T2, ヒトFcγRIIa (H) (human, UniProt P12318 34-217); assay: SPR, KD
T2 construct: extracellular domain; also called FcγRIIa H型
T2 sequence (looked up): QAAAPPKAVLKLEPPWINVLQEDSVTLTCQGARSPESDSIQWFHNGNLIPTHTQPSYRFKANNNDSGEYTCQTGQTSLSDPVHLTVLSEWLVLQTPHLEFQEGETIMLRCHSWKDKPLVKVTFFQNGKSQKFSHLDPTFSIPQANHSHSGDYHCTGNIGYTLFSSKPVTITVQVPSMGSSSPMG

ヒトFcγRIIa (R) [3] = target: T3, ヒトFcγRIIa (R) (human, UniProt P12318 34-217); assay: SPR, KD
T3 construct: extracellular domain; N-glycans trimmed with Endo F1/F2/F3 for the crystals; also called FcγRIIa R型
T3 sequence (looked up): T2 sequence (looked up) with H134R

ヒトFcγRIIb = target: T4, ヒトFcγRIIb (human, UniProt P31994 43-217); assay: SPR, KD; reference IL6R-B3/IL6R-L
T4 construct: extracellular domain; for the crystals it was expressed with kifunensine and its N-glycans trimmed with Endo F1; also called FcγRIIb細胞外領域
T4 sequence (looked up): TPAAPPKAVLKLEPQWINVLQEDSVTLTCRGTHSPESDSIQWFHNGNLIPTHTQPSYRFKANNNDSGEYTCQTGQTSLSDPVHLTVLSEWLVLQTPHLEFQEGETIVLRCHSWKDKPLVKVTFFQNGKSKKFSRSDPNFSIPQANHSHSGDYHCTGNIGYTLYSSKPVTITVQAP

ヒトFcγRIIa (R) [4] = target: T3, ヒトFcγRIIa (R); assay: SPR, KD; reference IL6R-B3/IL6R-L

ヒトFcγRIa, sequence (P12314 16-292): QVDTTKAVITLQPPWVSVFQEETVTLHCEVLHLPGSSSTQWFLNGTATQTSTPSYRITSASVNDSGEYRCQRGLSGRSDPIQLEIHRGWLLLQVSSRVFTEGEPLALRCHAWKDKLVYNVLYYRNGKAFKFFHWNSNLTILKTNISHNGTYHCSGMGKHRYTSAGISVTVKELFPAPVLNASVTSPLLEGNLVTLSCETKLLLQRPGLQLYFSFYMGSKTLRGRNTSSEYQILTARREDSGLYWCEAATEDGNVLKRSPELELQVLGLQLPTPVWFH

Kd (マウスFcRn [1]): 150 nM
fold improvement of affinity against IgG1 (マウスFcRn [2]): ~24.7 fold
B1: Fv4-hF1 (antibody, human IgG1, kappa)
heavy: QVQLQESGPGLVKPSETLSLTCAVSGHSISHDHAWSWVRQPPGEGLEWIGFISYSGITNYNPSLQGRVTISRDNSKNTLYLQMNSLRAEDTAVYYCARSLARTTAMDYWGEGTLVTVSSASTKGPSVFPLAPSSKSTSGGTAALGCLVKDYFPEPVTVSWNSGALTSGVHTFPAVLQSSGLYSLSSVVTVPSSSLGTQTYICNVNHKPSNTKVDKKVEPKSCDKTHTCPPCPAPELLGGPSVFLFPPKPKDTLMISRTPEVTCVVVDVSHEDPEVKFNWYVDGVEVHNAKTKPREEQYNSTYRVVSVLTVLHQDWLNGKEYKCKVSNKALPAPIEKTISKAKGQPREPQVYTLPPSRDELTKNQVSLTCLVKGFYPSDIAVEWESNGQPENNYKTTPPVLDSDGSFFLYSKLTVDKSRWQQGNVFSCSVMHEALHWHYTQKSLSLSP
light: DIQMTQSPSSLSASVGDSVTITCQASTDISSHLNWYQQKPGKAPELLIYYGSHLLSGVPSRFSGSGSGTDFTFTISSLEAEDAATYYCGQGNRLPYTFGQGTKVEIERTVAAPSVFIFPPSDEQLKSGTASVVCLLNNFYPREAKVQWKVDNALQSGNSQESVTEQDSKDSTYSLSSTLTLSKADYEKHKVYACEVTHQGLSSPVTKSFNRGEC

binding result (ヒトFcγRIa): binds
binding result (ヒトFcγRIIa (H)): binds
binding result (ヒトFcγRIIa (R) [3]): binds
B2: IL6R-B3/IL6R-L (antibody, human IgG1)
heavy: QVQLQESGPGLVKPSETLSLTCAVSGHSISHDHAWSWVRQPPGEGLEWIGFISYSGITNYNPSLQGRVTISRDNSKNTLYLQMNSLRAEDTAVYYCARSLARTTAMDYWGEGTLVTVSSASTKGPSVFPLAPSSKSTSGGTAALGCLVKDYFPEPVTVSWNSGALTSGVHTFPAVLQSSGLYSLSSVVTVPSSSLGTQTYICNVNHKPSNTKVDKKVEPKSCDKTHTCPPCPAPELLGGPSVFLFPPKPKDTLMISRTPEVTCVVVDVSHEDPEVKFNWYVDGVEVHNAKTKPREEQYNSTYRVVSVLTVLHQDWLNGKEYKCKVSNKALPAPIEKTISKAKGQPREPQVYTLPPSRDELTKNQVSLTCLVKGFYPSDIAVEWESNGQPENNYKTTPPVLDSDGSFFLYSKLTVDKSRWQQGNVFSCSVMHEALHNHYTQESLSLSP
light: DIQMTQSPSSLSASVGDRVTITCRASQDISSYLNWYQQKPGKAPKLLIYYTSRLHSGVPSRFSGSGSGTDFTFTISSLQPEDIATYYCQQGNTLPYTFGQGTKVEIK

fold enhancement of binding against IL6R-B3/IL6R-L (ヒトFcγRIIb): ~150 fold
fold improvement of binding activity against IL6R-B3 (ヒトFcγRIIb): 148 fold
fold enhancement of binding against IL6R-B3/IL6R-L (ヒトFcγRIIa (R) [4]): ~1.9 fold
B3: IL6R-BP230/IL6R-L (antibody)
chain 1: QVQLQESGPGLVKPSETLSLTCAVSGHSISHDHAWSWVRQPPGEGLEWIGFISYSGITNYNPSLQGRVTISRDNSKNTLYLQMNSLRAEDTAVYYCARSLARTTAMDYWGEGTLVTVSSASTKGPSVFPLAPSSKSTSGGTAALGCLVKDYFPEPVTVSWNSGALTSGVHTFPAVLQSSGLYSLSSVVTVPSSSLGTQTYICNVNHKPSNTKVDKKVEPKSCDKTHTCPPCPAPDLLGDDSVFLFPPKPKDTLMISRTPEVTCVVVDVSDEDGEVKFNWYVDGVEVHNAKTKPREEQDNSTYRVVSVLTVLHQDWLNGKEYKCKVSNKALPRPIEKTISKAKGQPREPQVYTLPPSRDELTKNQVSLTCLVKGFYPSDIAVEWESNGQPENNYKTTPPVLDSDGSFFLYSKLTVDKSRWQQGNVFSCSVMHEALHNHYTQESLSLSP
chain 2: not shown
